# From PMC5671938, “Multimerin-2 is a ligand for group 14 family C-type lectins CLEC14A, CD93 and CD248 spanning the endothelial pericyte interface” (Oncogene, 2017)
# T1: recombinant CLEC14A extracellular domain with an Fc tag (CLEC14A-ECD-Fc) (human, UniProt Q86T13 22-397)
# T1 construct: CLEC14A, human, extracellular domain; Human IgG Fc alone served as the control for the Fc tag; also called hCLEC14A-ECD-Fc; CLEC14A-Fc
# T1 sequence (looked up): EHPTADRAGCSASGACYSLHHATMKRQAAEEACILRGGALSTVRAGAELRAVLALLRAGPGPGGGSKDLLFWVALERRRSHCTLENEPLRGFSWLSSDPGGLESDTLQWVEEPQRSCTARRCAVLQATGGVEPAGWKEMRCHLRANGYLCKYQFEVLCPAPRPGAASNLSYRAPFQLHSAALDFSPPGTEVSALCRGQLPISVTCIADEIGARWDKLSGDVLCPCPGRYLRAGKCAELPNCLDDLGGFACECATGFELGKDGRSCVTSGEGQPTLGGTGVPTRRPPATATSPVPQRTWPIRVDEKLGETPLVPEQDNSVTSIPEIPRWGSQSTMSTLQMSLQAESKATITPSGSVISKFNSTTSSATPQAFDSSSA
# B1: MMRN2^495-674 expressed and purified from E. coli (blocking experiments) (domain or fragment, human, UniProt Q9H8L6 495-674, looked up)
# chain: QKLYLDLDVIREGQRDATRALEETQVSLDERRQLDGSSLQALQNAVDAVSLAVDAHKAEGERARAATSRLRSQVQALDDEVGALKAAAAEARHEVRQLHSAFAALLEDALRHEAVLAALFGEEVLEEMSEQTPGPLPLSYEQIRVALQDAASGLQEQALGWDELAARVTALEQASEPPRP
# notes: codon optimized synthetic DNA in pET23a between NdeI and NotI; The fragment was made 'with His tag or avitag'; also called MMRN2 peptide; source: E. coli BL21-DE3 pLysS, purified (Nickel-NTA, size exclusion chromatography), endotoxin removed
# Target: T1, recombinant CLEC14A extracellular …
# Assay: flow cytometry on cells; blocking: hCLEC14A-ECD-Fc incubated with 2 x molar excess of MMRN2^495-674 or MMRN2^495-603 for 1 h at 4 °C, then used to stain the HUVEC surface; anti-hFc-FITC
# Settings: both partners purified
binder,measurement,value
B1,binding result,binds
